{
  "source": "paper PMC4299599",
  "about": "“Quantification of cytosolic interactions identifies Ede1 oligomers as key organizers of endocytosis” (Molecular Systems Biology, 2014)",
  "conditions_in_all_cases": "partners not purified",
  "key": {"Ste11-3mCherry": {"biological_target": "T1, Ste11-3mCherry (S. cerevisiae, UniProt P23561 1-717)", "T1 construct": "Ste11, S. cerevisiae; negative control of FCCS; source: S. cerevisiae strain Don1-eGFP, Ste11-3mCherry, in living cells", "T1 sequence (looked up)": "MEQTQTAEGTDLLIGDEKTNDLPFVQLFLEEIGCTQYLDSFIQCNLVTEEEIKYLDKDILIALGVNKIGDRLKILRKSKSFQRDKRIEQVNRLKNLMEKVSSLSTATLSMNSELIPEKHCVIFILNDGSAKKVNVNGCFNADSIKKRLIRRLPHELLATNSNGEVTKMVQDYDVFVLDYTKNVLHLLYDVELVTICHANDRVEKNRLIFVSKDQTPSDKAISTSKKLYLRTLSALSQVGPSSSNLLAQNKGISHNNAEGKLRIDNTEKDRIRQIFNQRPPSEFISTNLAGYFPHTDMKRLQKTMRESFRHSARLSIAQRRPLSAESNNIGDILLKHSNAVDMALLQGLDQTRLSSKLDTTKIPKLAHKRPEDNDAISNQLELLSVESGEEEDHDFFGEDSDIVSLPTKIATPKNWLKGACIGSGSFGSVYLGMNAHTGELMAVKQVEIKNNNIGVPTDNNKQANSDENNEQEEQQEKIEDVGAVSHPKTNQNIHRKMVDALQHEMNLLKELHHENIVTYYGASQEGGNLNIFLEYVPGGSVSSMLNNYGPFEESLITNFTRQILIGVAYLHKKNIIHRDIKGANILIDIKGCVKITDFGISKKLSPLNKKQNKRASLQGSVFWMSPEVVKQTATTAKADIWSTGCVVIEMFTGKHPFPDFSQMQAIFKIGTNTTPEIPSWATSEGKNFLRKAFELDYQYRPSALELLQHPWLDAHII", "experiment": "fluorescence cross-correlation spectroscopy (FCCS); living yeast cells, observation volume in the cytoplasm; one protein tagged with (3)myeGFP/eGFP and the other with 3mCherry in the same strain; apparent (effective) KD; interactions up to ~1 μM detectable"}, "Rvs167": {"biological_target": "T2, Rvs167 (S. cerevisiae, UniProt P39743 1-482)", "T2 construct": "Rvs167, amphiphysin-like protein, S. cerevisiae; also called Rvs167-1myeGFP; source: chromosomally tagged at the endogenous locus, in the cytoplasm of living S. cerevisiae cells; not shown: 1myeGFP, C-terminal, kept", "T2 sequence (P39743 whole entry)": "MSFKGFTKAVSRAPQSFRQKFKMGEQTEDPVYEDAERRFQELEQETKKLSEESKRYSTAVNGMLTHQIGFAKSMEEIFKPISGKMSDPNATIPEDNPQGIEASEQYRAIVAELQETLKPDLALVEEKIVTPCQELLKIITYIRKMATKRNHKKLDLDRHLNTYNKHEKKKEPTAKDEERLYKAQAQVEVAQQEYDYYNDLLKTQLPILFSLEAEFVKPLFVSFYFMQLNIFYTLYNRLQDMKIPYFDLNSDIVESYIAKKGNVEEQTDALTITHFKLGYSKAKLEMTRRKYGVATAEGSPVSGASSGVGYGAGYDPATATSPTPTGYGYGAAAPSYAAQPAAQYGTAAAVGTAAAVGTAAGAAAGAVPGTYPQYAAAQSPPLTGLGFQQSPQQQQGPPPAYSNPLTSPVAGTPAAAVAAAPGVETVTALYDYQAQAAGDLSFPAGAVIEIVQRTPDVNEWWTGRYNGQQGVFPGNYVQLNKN", "experiment": "fluorescence cross-correlation spectroscopy (FCCS); in the cytoplasm of living yeast cells; first-named protein green (3myeGFP or 1myeGFP; eGFP for Don1), second red (3mCherry); self-interaction in diploid strains with one allele of each colour; apparent or effective KD (Kdeff) from single-cell measurements; only Kdeff values < 1000 nM are shown; values for self-interactions are upper limits"}, "Bbc1": {"biological_target": "T3, Bbc1 (S. cerevisiae, UniProt P47068 1-1157)", "T3 construct": "Bbc1, S. cerevisiae; also called Bbc1-3myeGFP; Bbc1-3mCherry; source: chromosomally tagged at the endogenous locus, in the cytoplasm of living S. cerevisiae cells", "T3 sequence (looked up)": "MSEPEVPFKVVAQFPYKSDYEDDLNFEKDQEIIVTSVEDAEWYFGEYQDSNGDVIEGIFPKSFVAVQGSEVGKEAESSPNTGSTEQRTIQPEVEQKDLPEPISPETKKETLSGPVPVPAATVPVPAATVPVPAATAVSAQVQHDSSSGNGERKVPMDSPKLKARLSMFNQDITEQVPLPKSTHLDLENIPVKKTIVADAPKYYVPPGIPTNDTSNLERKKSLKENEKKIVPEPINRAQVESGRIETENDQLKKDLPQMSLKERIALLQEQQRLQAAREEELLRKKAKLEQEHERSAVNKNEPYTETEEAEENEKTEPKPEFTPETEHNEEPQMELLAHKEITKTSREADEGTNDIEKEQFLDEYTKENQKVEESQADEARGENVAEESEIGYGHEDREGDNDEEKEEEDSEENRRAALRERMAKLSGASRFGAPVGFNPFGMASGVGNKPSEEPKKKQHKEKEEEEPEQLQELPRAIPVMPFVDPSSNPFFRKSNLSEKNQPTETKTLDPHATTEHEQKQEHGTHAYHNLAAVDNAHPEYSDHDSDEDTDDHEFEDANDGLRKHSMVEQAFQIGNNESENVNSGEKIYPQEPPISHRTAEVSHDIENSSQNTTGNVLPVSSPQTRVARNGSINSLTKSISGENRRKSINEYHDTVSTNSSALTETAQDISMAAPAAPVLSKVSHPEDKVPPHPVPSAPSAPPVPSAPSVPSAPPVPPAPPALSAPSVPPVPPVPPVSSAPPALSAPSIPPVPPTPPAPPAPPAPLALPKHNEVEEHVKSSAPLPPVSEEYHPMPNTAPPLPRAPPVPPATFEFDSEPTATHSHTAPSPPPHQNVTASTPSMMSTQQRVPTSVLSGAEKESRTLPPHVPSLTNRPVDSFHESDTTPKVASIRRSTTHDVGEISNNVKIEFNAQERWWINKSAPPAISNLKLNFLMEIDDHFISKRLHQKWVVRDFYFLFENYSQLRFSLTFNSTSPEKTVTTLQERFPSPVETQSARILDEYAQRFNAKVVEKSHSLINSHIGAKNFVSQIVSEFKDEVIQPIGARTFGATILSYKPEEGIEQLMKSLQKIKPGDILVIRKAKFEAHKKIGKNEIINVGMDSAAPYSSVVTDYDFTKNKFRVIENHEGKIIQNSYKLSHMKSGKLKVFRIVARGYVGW", "experiment": "fluorescence cross-correlation spectroscopy (FCCS); in the cytoplasm of living yeast cells; first-named protein green (3myeGFP or 1myeGFP; eGFP for Don1), second red (3mCherry); self-interaction in diploid strains with one allele of each colour; apparent or effective KD (Kdeff) from single-cell measurements; only Kdeff values < 1000 nM are shown; values for self-interactions are upper limits"}, "Sla1": {"biological_target": "T4, Sla1 (S. cerevisiae, UniProt P32790 1-1244)", "T4 construct": "Sla1, S. cerevisiae; also called Sla1-3myeGFP; Sla1-3mCherry; source: chromosomally tagged at the endogenous locus, in the cytoplasm of living S. cerevisiae cells", "T4 sequence (looked up)": "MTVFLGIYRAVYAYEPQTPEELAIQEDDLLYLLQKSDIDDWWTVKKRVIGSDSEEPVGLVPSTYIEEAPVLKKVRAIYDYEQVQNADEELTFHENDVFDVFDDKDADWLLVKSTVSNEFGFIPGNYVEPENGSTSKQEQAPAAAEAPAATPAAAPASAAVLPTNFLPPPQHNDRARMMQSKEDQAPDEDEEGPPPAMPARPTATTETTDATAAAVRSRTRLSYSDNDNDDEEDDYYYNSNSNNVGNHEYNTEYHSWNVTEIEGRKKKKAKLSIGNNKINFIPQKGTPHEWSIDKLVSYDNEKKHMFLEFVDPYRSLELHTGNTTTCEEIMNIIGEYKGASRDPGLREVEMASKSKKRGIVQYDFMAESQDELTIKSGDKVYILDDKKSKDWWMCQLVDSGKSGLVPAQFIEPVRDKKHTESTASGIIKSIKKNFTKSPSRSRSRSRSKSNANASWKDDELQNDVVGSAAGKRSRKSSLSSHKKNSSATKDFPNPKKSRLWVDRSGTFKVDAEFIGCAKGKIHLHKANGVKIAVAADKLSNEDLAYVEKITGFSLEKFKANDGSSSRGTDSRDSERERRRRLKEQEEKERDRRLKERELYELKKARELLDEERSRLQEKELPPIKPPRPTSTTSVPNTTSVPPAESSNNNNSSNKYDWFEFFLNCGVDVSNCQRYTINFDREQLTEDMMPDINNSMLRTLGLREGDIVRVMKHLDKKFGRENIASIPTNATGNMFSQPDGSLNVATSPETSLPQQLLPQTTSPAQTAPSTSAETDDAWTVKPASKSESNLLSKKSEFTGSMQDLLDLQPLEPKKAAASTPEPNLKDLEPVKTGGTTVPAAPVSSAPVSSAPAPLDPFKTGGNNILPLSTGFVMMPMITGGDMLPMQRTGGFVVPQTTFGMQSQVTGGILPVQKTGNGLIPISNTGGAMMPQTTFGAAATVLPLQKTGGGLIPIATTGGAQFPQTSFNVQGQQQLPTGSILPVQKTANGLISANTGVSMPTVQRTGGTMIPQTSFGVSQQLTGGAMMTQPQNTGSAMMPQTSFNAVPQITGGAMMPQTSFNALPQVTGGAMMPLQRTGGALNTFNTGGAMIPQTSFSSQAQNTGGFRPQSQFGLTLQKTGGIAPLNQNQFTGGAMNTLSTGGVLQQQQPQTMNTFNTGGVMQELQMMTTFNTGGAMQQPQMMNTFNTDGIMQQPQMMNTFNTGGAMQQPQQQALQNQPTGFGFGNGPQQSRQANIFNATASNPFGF", "experiment": "fluorescence cross-correlation spectroscopy (FCCS); in the cytoplasm of living yeast cells; first-named protein green (3myeGFP or 1myeGFP; eGFP for Don1), second red (3mCherry); self-interaction in diploid strains with one allele of each colour; apparent or effective KD (Kdeff) from single-cell measurements; only Kdeff values < 1000 nM are shown; values for self-interactions are upper limits"}},
  "data": [
    {"binder": "Don1-eGFP (natural protein, S. cerevisiae, UniProt Q05610 1-365, looked up, Don1, S. cerevisiae; negative control of FCCS; source: S. cerevisiae strain Don1-eGFP, Ste11-3mCherry, in living cells) MGKKNRKGKENNAAKTSFLKVENIKNTNSGLELPSQDYTNVEEKESSPKTDFPLITKEHVNTKTDSNILDYPTIGDLVSSVEKLCVLKELKIAFPEVDDTLIKAILIASQGVLEPAFNSLLYYSSPEENTDFALPMKPISVEDYSKINVSEILQREIFDDIEDEFSGQGINGSMVISKIESELSSLAEHIGNISTPGSNREVAESTRNVAVAEGHNTILSNEDSILKGKEKGKEEEKEKGEEKGVNSLKGAAVKVVAKSLKNNRIPVTVKRNEPSNNLFDVLNCDESEEEEEQDVETNTSNQERKNQGGNTEVPEAQRDSADRLPAKDDGGYKSAFGTDSCGLFAADAKDEKKQVHPSRQELSFT", "values": [
      {"measurement": "Kd", "setting": "Ste11-3mCherry", "value": "> 1", "unit": "µM"}
    ]},
    {"binder": "Rvs161 (natural protein, S. cerevisiae, UniProt P25343 1-265, looked up, Rvs161, amphiphysin-like protein, S. cerevisiae; also called Rvs161-1myeGFP; Rvs161-3mCherry; source: chromosomally tagged at the endogenous locus, in the cytoplasm of living S. cerevisiae cells) MSWEGFKKAINRAGHSVIIKNVDKTIDKEYDMEERRYKVLQRAGEALQKEAKGFLDSLRAVTASQTTIAEVISNLYDDSKYVAGGGYNVGNYYLQCVQDFDSETVKQLDGPLRETVLDPITKFSTYFKEIEEAIKKRDHKKQDFDAAKAKVRRLVDKPAKDASKLPRAEKELSLAKDIFENLNNQLKTELPQLVSLRVPYFDPSFEALIKIQLRFCTDGYTRLAQIQQYLDQQSRDDYANGLLDTKIEELLGQMTSLDICALGIK", "values": [
      {"measurement": "Kd", "setting": "Rvs167", "value": 0.006, "unit": "µM"}
    ]},
    {"binder": "Bzz1 (natural protein, S. cerevisiae, UniProt P38822 1-633, looked up, Bzz1, S. cerevisiae; also called Bzz1-3myeGFP; Bzz1-3mCherry; source: chromosomally tagged at the endogenous locus, in the cytoplasm of living S. cerevisiae cells) MSADLSIGNEIKDSFKETHKWVQNNLKWLKDIEQFYRERAKLEKDYSERLSRLSAEYFNKKSSTSVPISVGDTPTTTPGSIEAAGVVAWNEILSQTDMISKDHDQLSTDFENHVANQLSGLFTKLDMTLSKINGFNNDMVNKKDNIYHELEKAKKDYDEACSTMEMARNRYTKASNDRNKKKLDEKEMEMNKCKNEYLIKINQANRTKDKYYFQDVPEVLDLLQDVNEAKTLFLNDLWLKAASVENDLGANVSKRLQAANSVVKQNKPSLNTAIFIKHNLKNWKEPQDFVYKPSPVWHDDEKFAVPSSLEVEDLRIKLAKAENDYNSLQDKTQNELSKLSTLNKIKHEMKTNEDNINATKFYDTLKEYLNVVSPFTSHETLKLQAEVQIESIQNNVPEEYDLSTDNIDLSKTKKKSGIFSKFKHNILNVDSKPSSGGSTGNGNGGPLHITSLFNTSRRTRLGSAPNNAGEDSDNNSIRTTSTNNTKKTTQNSSDDGKNKVLYAYVQKDDDEITITPGDKISLVARDTGSGWTKINNDTTGETGLVPTTYIRISSAATVKANDRGPAPEVPPPRRSTLPVRTMEAIYAYEAQGDDEISIDPGDIITVIRGDDGSGWTYGECDGLKGLFPTSYCK", "values": [
      {"measurement": "Kd", "setting": "Bbc1", "value": 0.994, "unit": "µM"},
      {"measurement": "Kd", "setting": "Sla1", "value": 0.976, "unit": "µM"}
    ]}
  ]
}
